Here are results for six molecules from patent US11285283B2, “Methods for generating and delivering droplets to the pulmonary system using a droplet delivery device” (PNEUMA RESPIRATORY, INC., priority 2016, dated 2022).

Values joined by “and” are separate entries in the source; they are usually repeats but may differ in a detail not shown here. Equal entries are not always repeated.

Data set [1] relates to patients with cystic fibrosis. The note with it: cited from earlier work.
Data set [2] in a line: Gel electrophoresis of active agent after droplet generation. It counts as physicochemical. The note with it: after droplet generation with the device. The source says:
To determine the stability of active agent after droplet generation, the generated stream of droplets including the active agent is collected and the molecular weight of the active agent is verified using gel electrophoresis.

Data set [3] in a line: Anderson Cascade Impactor testing of droplet delivery device with Albuterol sulfate (Example B). The data set is classed as physicochemical.
Procedure: Droplet size distribution and related functionality was evaluated for exemplary droplet delivery devices of the disclosure, including Anderson Cascade Impactor testing, total drug mass output rates, total drug respirable mass, delivery efficiencies and reproducibility.
The study was designed to evaluate device performance of a single Pneuma™ inhaler. A series of three (3) individual tests were conducted with a new disposable drug cartridge for each test. The testing platform utilizes an eight-stage nonviable Anderson Cascade Impactor (Thermo Fisher Scientific; Waltham, Mass.) equipped with a calibrated AALBORG model GFM47 mass flow meter (AALBORG Instruments and Controls; Orangeburg, N.Y.) for flow rate measurement.
At the conclusion of each test, the mouthpiece was rinsed with mobile phase and collected for HPLC analysis to determine the mass fraction of non-respirable aerosolized drug captured in the mouthpiece via inertial filtering. Following each test, impactor stage samples were extracted and recovered in solvent and analyzed for the active pharmaceutical ingredient (API) using a Dionex Ultimate 3000 nano-HPLC with UV detection (Thermo Scientific, Sunnyvale, Calif.).
The cascade impactor testing procedure involved fitting the mouthpiece into the Impactor USP throat with a mouthpiece connection seal. The vacuum pump supplying sample air flow to the cascade impactor was turned on and the pump control valves adjusted to supply 28.3 L/min total flow through the impactor and inhaler body during aerosol tests.
The device was connected to the impactor USB throat, turned on, and actuated ten (10) times for each test. At the conclusion of the test period, the device, impactor, and dilution air sources were turned off. The i mouthpiece was rinsed in order to extract drug, and all stages of the cascade impactor were rinsed with a quantity of appropriate solvent (HPLC mobile phase). Extracted samples were placed in labeled and sterile HPLC vials, capped, and analyzed for drug content via HPLC with UV detection. The mouthpiece was extracted of residual drug and analyzed for drug content via HPLC to measure mouthpiece drug deposition in relation to the total collected on the impactor stages.
All system flow rates and impactor sample flows were monitored throughout each test period. Following each test, the impactor slides were placed in labeled sterile Petri dishes, and impactor stages were extracted of drug using 2 ml of mobile phase applied with a calibrated micropipette. All extracted samples from the mouthpiece and impactor were placed in labeled sterile amber HPLC sample vials, and stored refrigerated at approximately 2° C. until HPLC analysis.
Impactor collection stages for all tests were rinsed with DI water and ethanol, and air dried prior to each inhaler test trial to avoid contamination. A new inhaler drug cartridge was used for each of the three individual tests.
All drug content analysis was performed using a Dionex Ultimate 3000 nano-HPLC equipped with a Dionex UVD-3000 multi-wavelength UV/VIS Detector using a micro flow cell (75 μm×10 mm path length, total analytical volume 44.2 nl). […] Total HPLC run time was 6 minutes per sample with approximately 5 minutes flush between each sample. Sample injection was performed with a 1 μl sample loop in full loop injection mode.
Buffer formulation contains reverseosmosis filtered deionized water with 1.13 gr of sodium 1-hexanesulfonate (Alfa Aesar) in 1200 ml of water, with 2 ml glacial acetic acid (Acros Organics) added. The mobile phase solution was mixed and filtered through a 0.45 μm filter membrane. The final mobile phase is a 60:40 dilution of Buffer: MEOH.
Data set [4] is described as follows: Enbrel stability after aerosol generation, size exclusion chromatography. The data set is classed as physicochemical. The note with it: for Peak 1 Peak Area % / Peak 2 Peak Area % / Peak 3 Peak Area % / Peak 4 Peak Area % / Peak 5 Peak Area %: replicate samples. The source says:
Alternately, to determine the stability of active agent after droplet generation, the generated stream of droplets including the active agent may be collected and […] may be employed to monitor for any changes in large molecule aggregation and protein fragment content. Soluble protein aggregates and protein fragment content may be calculated by comparing respective peak area under the SEC-HPLC curve of dispensed protein solutions with controls (solutions remaining in the device reservoir). Drug solutions for testing include Enbrel, (ENBREL® single-use prefilled syringes in 25 mg (0.51 mL of a 50 mg/mL solution of etanercept), and insulin, (Humalog, 200 units/ml, 3 ml […] is performed with a YarraTM 3 μm SEC-2000 LC column 300×7.8 mm, SecurityGuard cartridge kit and SecurityGuard cartridges GFC-2000, 4×3 mm ID. Fifty microliters of Enbrel from the syringe (ENBREL® single-use prefilled syringes in 25 mg/0.51 mL of a 50 mg/mL solution of etanercept) is diluted (4:1) (4 parts, 200 mcl of the mobile phase buffer solution to 1 part, 50 mcl Enbrel from syringe). Fifty microliter of the diluted Enbrel is injected and separation was performed at a flow rate of 1.0 ml/min. The mobile phase buffer system included a PHOS. BUFF. SALINE. […] UV detection is performed at 280 nm. […] An ampule/cartridge is filled with […] of Enbrel® (50 mg/ml) diluted 4:1 (10 mg/ml)(4 parts (200 mcl) of PBS and 0.025% NaN3 and 1 part (50 mcl of Enbrel solution from the syringe). After 20 actuations and aerosolization, about 150 mcl of the aerosolized Enbrel solution is recovered and collected in the polypropylene tube located below the ejector mechanism. The control consists of the diluted Enbrel solution, 50 mcl of which is injected into the SEC column for analysis.
Background: In gel filtration, larger molecules generally elute earlier.

Data set [5] is described as follows: Insulin stability after aerosol generation, size exclusion chromatography. The data set is classed as physicochemical. The source says:
Alternately, to determine the stability of active agent after droplet generation, the generated stream of droplets including the active agent may be collected and SEC-HPLIC may be employed to monitor for any changes in large molecule aggregation and protein fragment content. Soluble protein aggregates and protein fragment content may be calculated by comparing respective peak area under the SEC-HPLC curve of dispensed protein solutions with controls (solutions remaining in the device reservoir).
Drug solutions for testing include Enbrel, (ENBREL® single-use prefilled syringes in 25 mg (0.51 mL of a 50 mg/mL solution of etanercept), and insulin, (Humalog, 200 units/ml, 3 ml kwikpens)
To calculate and compare effects of droplet generation through an ejector mechanism of the disclosure, the total area under the curve of the UV signal at 280 nm versus elution time for controls is compared with the aerosolized samples, which is set to 100%.
Aerosol collection and SEC is performed in a similar fashion as for the Enbrel analysis and aerosol collection.
Fifty microliters of the collected aerosol spray is injected onto the SEC column for analysis, while 50 mcl of the Kwikpen insulin solution is injected onto the SEC column for control samples.

Where [6] appears, read: Albuterol 0.5%, 28.3 lpm, 10 actuations.
Where [7] appears, read: aerosolized, average of S1 and S2.

For `NC[C@H]1O[C@H](O[C@H]2[C@H](O)[C@@H](O[C@H]3O[C@H](CO)[C@@H](O)[C@H](N)[C@H]3O)[C@H](N)C[C@@H]2N)[C@H](N)C[C@@H]1O` [tobramycin], the “pulmonary function after administration by inhalation” value in data set [1] (inhalation, without severe side effects to kidney functions) is “significantly improves pulmonary function”. The “serum levels after intravenous administration” value in data set [1] (intravenous administration) is “toxic to the kidneys”.
bevacizumab: the “change in electrophoretic mobility / molecular weight of post-aerosol active agent versus control” value in data set [2] is “negligible change”.
As for adalimumab, in data set [2], the “change in electrophoretic mobility / molecular weight of post-aerosol active agent versus control” value was “negligible change”.
For the molecule Albuterol sulfate, in data set [3] (setting [6]), the “droplets of an average diameter of less than about 5 μm” value is “over 75%” and the “droplets with an average diameter of less than about 4 μm” value is recorded as “over 70%”. In data set [3] (FILTER), the “Cum. % <” value is on record as 0.00% and the “Cum. % >” value worked out at 100.00%. Moreover, in data set [3] (Pre-separator, cut diam. 10 μm), the “Cum. % <” value is on record as 100.00% and the “Cum. % >” value was determined as 0.00%.
Consider etanercept [Enbrel], for which, in data set [4] (aerosolized with test device), the “dose forming molecular fragments with elution times of 13 and 25 minutes” value came out at 4.6%; the “Peak 2 Peak Area %” value is 92.112% and 90.789%; the “Peak 3 Peak Area %” value is 0.361% and 0.424%. Also, the “Peak 1 Peak Area %” value in data set [4] (aerosolized with test device, 20 actuations) is 3.476% and 2.796%. For the same molecule, the “Peak 4 Peak Area %” value in data set [4] (aerosolized with test device, fragment, elution about 13 min) was 0.352% and 0.357%. Moreover, in data set [4] (aerosolized with test device, fragment, elution about 25 min), the “Peak 5 Peak Area %” value is 3.428% and 5.130% and 5.123%. Moreover, in data set [4] (setting [7]), the “Peak 4 Peak Area %, Avg.” value is on record as 0.3545 and the “Peak 5 Peak Area %, Avg.” value was determined as 4.2755. Also, in data set [4] (control, Enbrel diluted 4:1 (10 mg/ml), not aerosolized), the “Peak 1 Peak Area %” value was 2.428% and 3.041%. Besides, in data set [4] (control, not aerosolized), the “Peak 2 Peak Area %” value is 96.676% and 95.909%; the “Peak 3 Peak Area %” value was 0.373% and 0.351%; the “Peak 4 Peak Area %” value was found to be 0%; the “Peak 5 Peak Area %” value is listed as 0%. Moreover, the “change in electrophoretic mobility / molecular weight of post-aerosol active agent versus control” value in data set [2] is reported as “negligible change”.
Turning to “Insulin: insulin, Humalog, 200 units/ml, 3 ml kwikpens”, the “ejected dose forming a fragment which elutes at ~25 minutes” value in data set [5] (aerosolized with test device) is reported as 2.5%. Besides, the “Peak 1 Peak Area %” value was 27.881% and 28.721% in data set [5] (aerosolized with test device, 20 actuations, replicate samples); 29.926% in data set [5] (control, Kwikpen solution 200 U/ml, not aerosolized). For the same molecule, the “Peak 2 Peak Area %” value in data set [5] (aerosolized with test device, replicate samples) was 69.780% and 67.807%; in data set [5] (control, not aerosolized), 69.630%. In addition, the “Peak 3 Peak Area %” value was 2.184% and 2.797% in data set [5] (aerosolized with test device, replicate samples, fragment, elution ~25 min); 0% in data set [5] (control, not aerosolized). The “Peak 3 Peak Area %, Avg.” value in data set [5] (setting [7]) is on record as 2.4905.
